The target in experiment [1] is T1, human IL-5R α chain expressed on cells (human, UniProt Q01344 21-420).
T1 construct: whole, on cells; also called hIL-5R α; CTLL-2(h5R)
T1 sequence (looked up): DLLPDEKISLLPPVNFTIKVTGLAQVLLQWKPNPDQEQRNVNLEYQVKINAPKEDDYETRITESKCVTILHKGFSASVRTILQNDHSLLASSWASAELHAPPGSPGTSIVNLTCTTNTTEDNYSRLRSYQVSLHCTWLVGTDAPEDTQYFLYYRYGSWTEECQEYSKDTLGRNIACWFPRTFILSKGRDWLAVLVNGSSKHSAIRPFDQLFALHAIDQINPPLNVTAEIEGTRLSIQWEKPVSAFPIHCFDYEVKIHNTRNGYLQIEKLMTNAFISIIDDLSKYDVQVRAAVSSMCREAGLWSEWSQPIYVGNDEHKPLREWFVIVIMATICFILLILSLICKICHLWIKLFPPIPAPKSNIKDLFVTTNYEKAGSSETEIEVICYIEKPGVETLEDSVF
Put plainly: immunocyte staining, flow cytometry on CTLL-2(h5R) cells. As for the experimental part: (§1) Briefly, 5 ×10^5 cells obtained by transfecting a human IL-5R gene into CTLL-2 cells (ATCC TIB 214) [hereinafter referred to as "CTLL-2(h5R)"] [J. Exp. Med., 177, 1523 (1993)] or 5 ×10^5 CTLL-2 cells as a control were suspended in an immunocyte staining buffer (PBS containing 1% BSA, 0.02% EDTA and 0.05% sodium azide) and dispensed into a round bottom 96-well plate (100 μl/well). After centrifuging at 350×g for 1 minute at 4° C., the supernatant was discarded. Then, 50 μl of the immunocyte staining buffer containing 10 μg/ml of an hIL-5R α antibody were added to each well and reacted at 4° C. for 30 minutes. After the reaction, the immunocyte staining buffer was added (200 μl/well) and centrifuged at 350×g for 1 minute at 4° C. and then the supernatant was removed to wash the cells. The washing operation was further repeated twice. Thereafter, 50 μl of the immunocyte staining buffer containing FITC-labeled anti-mouse immunoglobulin antibody or FITC-labeled anti-human immunoglobulin antibody (both manufactured by Wako Pure Chemical Industries, Ltd.) diluted 30 folds with a staining buffer were added to each well and reacted at 4° C. for 30 minutes. After the reaction, a similar washing operation was repeated three times. Then, the cells were analyzed with a flow cytometer (Coulter).

The target of experiment [2] is T1, human IL-5R α chain expressed on cells. Put plainly: flow cytometry on CTLL-2(h5R) cells, antibody at 10 µg/ml. On the procedure:
as §1
On the technique in general: In flow cytometry, cells or beads pass a laser one at a time.

B1: anti-human IL-5R α monoclonal antibody KM1257 (antibody, V domains shown)
VH: EVQLVESGGDLVKPGGSLKLSCAASGFTFSDYGMAWIRQISDKRPEWVAAISSGGSYIHFPDSLKGRFTVSRDNAKNTLYLEMSGLKSEDTAMYYCARRGFYGNYRAMDYWGQGTSVTVSS
VL: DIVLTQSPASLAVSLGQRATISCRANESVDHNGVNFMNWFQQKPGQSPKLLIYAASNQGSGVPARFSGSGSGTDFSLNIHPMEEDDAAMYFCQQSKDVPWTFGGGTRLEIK
notes: Mouse IgG1; also called hybridoma KM1257 (FERM BP-5133)
On to B1, for which, in experiment [1], the binding result was “binds”.

B2: anti-human IL-5R α chain human CDR-grafted antibody KM8399 (antibody, human IgG1, V domains shown)
VH: EVQLVQSGAEVKKPGASVKVSCKASGYTFTSYVIHWVRQRPGQGLAWMGYINPYNDGTKYNERFKGKVTITSDRSTSTVYMELSSLRSEDTAVYLCGREGIRYYGLLGDYWGQGTLVTVSS
VL: DIQMTQSPSSLSASVGDRVTITCGTSEDIINYLNWYQQKPGKAPKLLIYHTSRLQSGVPSRFSGSGSGTDFTLTISSLQPEDFATYYCQQGYTLPYTFGQGTKVEIK
notes: also called HV.3LV.0; pKANTEX1259HV3LV0
Consider B2, for which, in experiment [2], the binding result was “binds”.

B3: anti-human IL-5R α chain human CDR-grafted antibody KM9399 of human antibody IgG4 subclass (antibody, V domains shown)
VH: B2 VH
VL: B2 VL
notes: Same V regions as KM8399 (built from pKANTEX1259HV3LV0); also called pKANTEX1259HV3LV0γ4; transformant KM9399 (FERM BP-5647)
Turning to B3, the binding result in experiment [2] is on record as “binds”.

(Values after US7179464 (Kyowa Kirin, dated 2007).)
